B1: Fanconi anemia group J protein (Homo sapiens), Q9BX63 (parent)
chain: MSSMWSEYTIGGVKIYFPYKAYPSQLAMMNSILRGLNSKQHCLLESPTGSGKSLALLCSALAWQQSLSGKPADEGVSEKAEVQLSCCCACHSKDFTNNDMNQGTSRHFNYPSTPPSERNGTSSTCQDSPEKTTLAAKLSAKKQASIYRDENDDFQVEKKRIRPLETTQQIRKRHCFGTEVHNLDAKVDSGKTVKLNSPLEKINSFSPQKPPGHCSRCCCSTKQGNSQESSNTIKKDHTGKSKIPKIYFGTRTHKQIAQITRELRRTAYSGVPMTILSSRDHTCVHPEVVGNFNRNEKCMELLDGKNGKSCYFYHGVHKISDQHTLQTFQGMCKAWDIEELVSLGKKLKACPYYTARELIQDADIIFCPYNYLLDAQIRESMDLNLKEQVVILDEAHNIEDCARESASYSVTEVQLRFARDELDSMVNNNIRKKDHEPLRAVCCSLINWLEANAEYLVERDYESACKIWSGNEMLLTLHKMGITTATFPILQGHFSAVLQKEEKISPIYGKEEAREVPVISASTQIMLKGLFMVLDYLFRQNSRFADDYKIAIQQTYSWTNQIDISDKNGLLVLPKNKKRSRQKTAVHVLNFWCLNPAVAFSDINGKVQTIVLTSGTLSPMKSFSSELGVTFTIQLEANHIIKNSQVWVGTIGSGPKGRNLCATFQNTETFEFQDEVGALLLSVCQTVSQGILCFLPSYKLLEKLKERWLSTGLWHNLELVKTVIVEPQGGEKTNFDELLQVYYDAIKYKGEKDGALLVAVCRGKVSEGLDFSDDNARAVITIGIPFPNVKDLQVELKRQYNDHHSKLRGLLPGRQWYEIQAYRALNQALGRCIRHRNDWGALILVDDRFRNNPSRYISGLSKWVRQQIQHHSTFESALESLAEFSKKHQKVLNVSIKDRTNIQDNESTLEVTSLKYSTSPYLLEAASHLSPENFVEDEAKICVQELQCPKIITKNSPLPSSIISRKEKNDPVFLEEAGKAEKIVISRSTSPTFNKQTKRVSWSSFNSLGQYFTGKIPKATPELGSSENSASSPPRFKTEKMESKTVLPFTDKCESSNLTVNTSFGSCPQSETIISSLKIDATLTRKNHSEHPLCSEEALDPDIELSLVSEEDKQSTSNRDFETEAEDESIYFTPELYDPEDTDEEKNDLAETDRGNRLANNSDCILAKDLFEIRTIKEVDSAREVKAEDCIDTKLNGILHIEESKIDDIDGNVKTTWINELELGKTHEIEIKNFKPSPSKNKGMFPGFK

Variants of: B1
Settings: with brca1_human BRCA1, P38398
Chain of brca1_human BRCA1, P38398 (P38398 whole entry, looked up): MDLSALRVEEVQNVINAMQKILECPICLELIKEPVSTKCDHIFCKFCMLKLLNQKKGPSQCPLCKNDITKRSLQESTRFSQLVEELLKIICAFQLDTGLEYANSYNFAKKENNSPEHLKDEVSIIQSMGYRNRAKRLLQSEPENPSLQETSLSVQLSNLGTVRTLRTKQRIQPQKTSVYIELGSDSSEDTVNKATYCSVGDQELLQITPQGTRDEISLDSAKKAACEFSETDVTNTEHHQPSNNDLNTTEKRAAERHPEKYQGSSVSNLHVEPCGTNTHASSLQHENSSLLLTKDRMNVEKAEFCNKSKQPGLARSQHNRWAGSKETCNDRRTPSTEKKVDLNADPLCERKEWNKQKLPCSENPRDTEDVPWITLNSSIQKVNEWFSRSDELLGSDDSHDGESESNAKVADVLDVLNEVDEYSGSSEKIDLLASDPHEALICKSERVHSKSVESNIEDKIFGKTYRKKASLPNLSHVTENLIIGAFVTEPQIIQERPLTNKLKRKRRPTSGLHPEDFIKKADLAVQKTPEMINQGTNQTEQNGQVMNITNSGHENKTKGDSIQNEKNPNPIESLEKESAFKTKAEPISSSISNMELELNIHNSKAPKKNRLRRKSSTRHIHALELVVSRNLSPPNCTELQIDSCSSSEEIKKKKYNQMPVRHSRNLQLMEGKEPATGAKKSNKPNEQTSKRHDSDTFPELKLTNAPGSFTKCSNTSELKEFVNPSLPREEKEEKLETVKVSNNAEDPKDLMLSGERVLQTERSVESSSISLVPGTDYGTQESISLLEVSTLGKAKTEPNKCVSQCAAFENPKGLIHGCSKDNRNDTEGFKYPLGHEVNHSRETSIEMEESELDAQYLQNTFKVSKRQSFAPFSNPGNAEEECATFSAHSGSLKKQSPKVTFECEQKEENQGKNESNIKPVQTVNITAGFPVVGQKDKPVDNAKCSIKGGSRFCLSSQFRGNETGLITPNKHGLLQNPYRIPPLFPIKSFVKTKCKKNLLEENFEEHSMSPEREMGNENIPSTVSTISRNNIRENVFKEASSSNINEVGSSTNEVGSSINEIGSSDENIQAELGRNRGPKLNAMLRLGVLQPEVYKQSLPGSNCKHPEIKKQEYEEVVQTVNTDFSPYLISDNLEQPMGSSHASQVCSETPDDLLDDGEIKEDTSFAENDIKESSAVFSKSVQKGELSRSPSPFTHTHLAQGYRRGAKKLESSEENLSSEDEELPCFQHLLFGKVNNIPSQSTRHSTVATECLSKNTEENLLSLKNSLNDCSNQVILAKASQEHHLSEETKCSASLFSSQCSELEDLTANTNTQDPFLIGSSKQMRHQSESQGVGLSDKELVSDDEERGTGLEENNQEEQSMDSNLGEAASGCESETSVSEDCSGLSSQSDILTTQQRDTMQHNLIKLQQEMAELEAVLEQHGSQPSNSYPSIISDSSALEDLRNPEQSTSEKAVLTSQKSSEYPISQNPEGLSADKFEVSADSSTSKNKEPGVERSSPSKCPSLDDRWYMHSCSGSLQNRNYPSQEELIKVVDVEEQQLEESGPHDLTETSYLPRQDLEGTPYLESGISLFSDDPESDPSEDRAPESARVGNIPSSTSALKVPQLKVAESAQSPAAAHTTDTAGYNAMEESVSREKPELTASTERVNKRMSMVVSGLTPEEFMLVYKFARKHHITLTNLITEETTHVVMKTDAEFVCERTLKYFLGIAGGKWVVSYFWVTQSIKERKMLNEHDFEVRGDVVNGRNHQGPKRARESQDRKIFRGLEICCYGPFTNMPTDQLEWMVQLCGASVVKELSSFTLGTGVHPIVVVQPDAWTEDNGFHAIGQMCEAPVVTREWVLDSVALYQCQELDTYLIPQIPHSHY
With S990A the “effect of a mutation on the interaction” value was “disrupting interaction”.
